# Measurements from patent US20110131028A1, “CELL POPULATION SYSTEM AND PROCESS” (priority 2006, published 2011).
# B1: IL-4: cytokine that affects B cell viability without stimulating cell division (protein, UniProt P05112 25-153, looked up)
# Interleukin-4: HKCDITLQEIIKTLNSLTEQKTLCTELTVTDIFAASKNTTEKETFCRAATVLRQFYSHHEKDTRCLGATAQQFHRHKQLIRFLKRLDRNLWGLAGLNSCPVKEANQSTLENFLERLKTIMREKYSKCSS
# Test system: B cells isolated from spleen
# Test: Survival of unstimulated B cells in culture, lognormal time-to-die fit
# Format: cell-based
# Conditions: increasing IL-4 concentration; FIG. 3D
# Protocol: As indicated above, the probability distribution is determined by simulating the decreasing size of a cell population over time in the absence of cell division. For example, when naive T or B lymphocytes are purified from lymphoid tissue and placed in tissue culture without stimulation, they progressively die by apoptosis, apparently from the absence of homeostatic survival signals that are present in vivo. To determine a probability distribution representing probabilities for cell death, small resting B cells from spleen/lymphnode can be placed in culture under different conditions and their viability measured by propidium iodide uptake at step 202. Cell numbers can be counted by reference to beads, as described in Deenick.
# At step 204, the two parameters of the lognormal probability distribution, namely the mean μ and standard deviation σ, are determined using a standard fitting procedure (the Matlab fmincon function) that varies μ and σ to obtain the closest match between the corresponding lognormal survival curve (i.e., the simulated ‘survival curve’ representing the decreasing size of the cell population over time, the curve being generated from a lognormal probability distribution representing probabilities for times to die with distribution parameters μ and σ) and the experimental data. […]
molecule,measurement,value
B1,mean time to die μ,increases
